The record followed here is patent US20200316217A1.

Targets include Human PTHR1 WT (human) (UniProt Q03431); PTHR16E (human) (UniProt Q03431); PTHR1GFP (human) (UniProt Q03431); PTHR1YFPΔECD (human); rat PTHR1 (rat) (UniProt P25961); human PTHR2 (human) (UniProt P49190).
Holding throughout (assay): cell-based or functional assay

human PTHR2 (human), sequence (P49190 25-550): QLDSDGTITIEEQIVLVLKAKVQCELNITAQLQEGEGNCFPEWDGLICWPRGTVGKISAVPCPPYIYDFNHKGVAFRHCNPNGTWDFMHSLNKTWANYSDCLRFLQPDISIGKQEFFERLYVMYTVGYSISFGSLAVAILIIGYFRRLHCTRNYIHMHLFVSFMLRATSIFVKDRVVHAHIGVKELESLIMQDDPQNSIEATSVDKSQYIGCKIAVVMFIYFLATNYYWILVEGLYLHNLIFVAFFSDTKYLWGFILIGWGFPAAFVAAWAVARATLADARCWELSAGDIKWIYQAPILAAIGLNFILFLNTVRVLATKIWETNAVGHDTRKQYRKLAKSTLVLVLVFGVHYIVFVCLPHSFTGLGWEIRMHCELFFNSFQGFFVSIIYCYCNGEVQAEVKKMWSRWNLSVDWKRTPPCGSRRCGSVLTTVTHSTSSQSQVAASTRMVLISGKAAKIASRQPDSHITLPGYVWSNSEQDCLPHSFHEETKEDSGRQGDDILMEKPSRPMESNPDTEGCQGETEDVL
rat PTHR1 (rat), sequence (P25961 27-591): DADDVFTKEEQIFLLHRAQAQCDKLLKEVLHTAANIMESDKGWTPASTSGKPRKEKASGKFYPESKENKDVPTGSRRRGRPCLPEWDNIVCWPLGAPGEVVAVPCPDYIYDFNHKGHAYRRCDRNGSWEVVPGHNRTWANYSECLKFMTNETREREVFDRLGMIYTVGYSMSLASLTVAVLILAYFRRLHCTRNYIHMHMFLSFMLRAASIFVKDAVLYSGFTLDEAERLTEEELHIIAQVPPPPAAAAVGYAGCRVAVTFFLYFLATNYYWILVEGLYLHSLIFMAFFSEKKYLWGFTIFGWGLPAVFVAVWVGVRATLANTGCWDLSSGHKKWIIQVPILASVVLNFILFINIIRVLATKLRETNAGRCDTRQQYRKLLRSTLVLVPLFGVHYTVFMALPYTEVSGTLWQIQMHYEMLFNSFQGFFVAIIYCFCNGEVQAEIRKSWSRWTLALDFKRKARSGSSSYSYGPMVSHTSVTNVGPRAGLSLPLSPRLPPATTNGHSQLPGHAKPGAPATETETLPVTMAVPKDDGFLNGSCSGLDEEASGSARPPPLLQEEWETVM

Turning to PTH(1-9) (peptide), the Stimulation of receptor (cAMP), EC50 with Human PTHR1 WT (human), with PTHR16E (human) and with PTHR1YFPΔECD (human) was > 10000 nM in each case. The cAMP induction EC50 with Human PTHR1 WT (human), in the experiment with PTHR16E (human), with PTHR1GFP (human) and with PTHR1YFPΔECD (human) was > 10000 nM each time.
Consider PTH(1-10) (peptide), for which the Stimulation of receptor (cAMP), EC50 with Human PTHR1 WT (human) worked out at 3120 nM; with PTHR16E (human) it was 5080 nM; in the experiment with PTHR1YFPΔECD (human), 3840 nM. Further, the cAMP induction EC50 was found to be 3120 nM with Human PTHR1 WT (human); 2470 nM with rat PTHR1 (rat); 5080 nM with PTHR16E (human); 2550 nM in the experiment with PTHR1GFP (human); 3840 nM with PTHR1YFPΔECD (human). In addition, the cAMP induction Max (normalized) in the experiment with Human PTHR1 WT (human) came to 1.03 normalized; in the experiment with rat PTHR1 (rat), 1.09 normalized; with PTHR16E (human), 1.09 normalized; in the experiment with PTHR1GFP (human), 1.16 normalized; with PTHR1YFPΔECD (human), 1.12 normalized.
Regarding PTH(1-11) (peptide), the Stimulation of receptor (cAMP), EC50 worked out at 516 nM with Human PTHR1 WT (human), 94 nM in the experiment with PTHR16E (human) and 246 nM in the experiment with PTHR1YFPΔECD (human). Also, the cAMP induction EC50 in the experiment with Human PTHR1 WT (human) is 516 nM; with human PTHR2 (human), > 100000 nM; with rat PTHR1 (rat) it was 120 nM; with PTHR16E (human) it was 94 nM; in the experiment with PTHR1GFP (human), 79 nM; with PTHR1YFPΔECD (human), 246 nM. Besides, the cAMP induction Max (normalized) amounted to 1.01 normalized with Human PTHR1 WT (human); 0.36 normalized with human PTHR2 (human); 1.02 normalized with rat PTHR1 (rat); 1.09 normalized in the experiment with PTHR16E (human); 1.1 normalized in the experiment with PTHR1GFP (human); 1.02 normalized with PTHR1YFPΔECD (human). The substance further yielded a cAMP induction, percent at 100 uM in the experiment with human PTHR2 (human) of 20 % at 100 µM. In the experiment with PTHR1GFP (human), this substance came in with a half maximal stimulation (cAMP-sensitive luciferase) of 200 nM.
Turning to PTH(1-14) (peptide), the figures for the Stimulation of receptor (cAMP), EC50 with Human PTHR1 WT (human), with PTHR16E (human) and with PTHR1YFPΔECD (human) were 4.3 nM, 3.4 nM and 1.1 nM, respectively. The cAMP induction EC50 stood at 4.3 nM in the experiment with Human PTHR1 WT (human); 924 nM with human PTHR2 (human); 3.4 nM with PTHR16E (human); 2.3 nM in the experiment with PTHR1GFP (human); 1.1 nM with PTHR1YFPΔECD (human). In addition, the cAMP induction Max (normalized) with Human PTHR1 WT (human) is 1.01 normalized; with human PTHR2 (human) it was 1.14 normalized; with PTHR16E (human), 1.06 normalized; with PTHR1GFP (human), 1.09 normalized; with PTHR1YFPΔECD (human), 0.96 normalized.
VHHGFP-PTH(1-11): in the experiment with Human PTHR1 WT (human), the Stimulation of receptor (cAMP), EC50 is > 100 nM; the activation of PTHR1 was > 100 nM; the cAMP induction EC50 was > 100 nM. Moreover, the cAMP induction EC50 with rat PTHR1 (rat) was > 100 nM. In the experiment with PTHR16E (human), the Stimulation of receptor (cAMP), EC50 is > 100 nM and the cAMP induction EC50 is > 100 nM. In the experiment with PTHR1GFP (human), this substance had a cAMP induction EC50 of 8 nM and a cAMP induction Max (normalized) of 1.1 normalized. Further, in the experiment with PTHR1YFPΔECD (human), the Stimulation of receptor (cAMP), EC50 turned out to be 0.14 nM; the activity, fold enhancement against PTH(1-11) is > 20000 fold; the cAMP induction EC50 is 0.14 nM; the cAMP induction Max (normalized) turned out to be 1.19 normalized.
For VHHGFP-PTH(1-14), the Stimulation of receptor (cAMP), EC50 in the experiment with Human PTHR1 WT (human) was > 100 nM; with PTHR16E (human), > 100 nM; with PTHR1YFPΔECD (human), 0.58 nM. Further, the cAMP induction EC50 with Human PTHR1 WT (human) is > 100 nM; with PTHR16E (human), > 100 nM; with PTHR1GFP (human) it was 1.8 nM; with PTHR1YFPΔECD (human) it was 0.58 nM. Besides, the cAMP induction Max (normalized) stood at 1.21 normalized with PTHR1GFP (human) and 1.16 normalized in the experiment with PTHR1YFPΔECD (human).
Regarding VHHGFP-PTH(1-10), in the experiment with PTHR1GFP (human), the cAMP induction EC50 is > 100 nM. Besides, in the experiment with PTHR1YFPΔECD (human), the Stimulation of receptor (cAMP), EC50 came to 0.46 nM; the cAMP induction EC50 is 0.46 nM; the cAMP induction Max (normalized) turned out to be 1.06 normalized; the potency, fold against PTH(1-10) was determined as 7800 fold.
VHHGFP-PTH(1-9): in the experiment with PTHR1GFP (human), the cAMP induction EC50 is > 100 nM. In the experiment with PTHR1YFPΔECD (human), this substance had a Stimulation of receptor (cAMP), percent activation (% activation at 100 nM) of 40; a cAMP induction Max (normalized) of 0.38 normalized; a cAMP induction, percent activation (% activation at 100 nM) of 40.
